# Measured values from PMC10234109 (2023).
# T1: HCBD–GST (helical cargo-binding domain of mouse Myo6, residues 1052–1096) (Mus musculus (Mouse), UniProt Q64331)
# T1 chain: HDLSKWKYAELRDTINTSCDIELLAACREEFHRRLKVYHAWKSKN
# Biological target: T1, HCBD–GST (helical cargo-binding domain …)
# Assay: GST pulldown, Coomassie-stained gel
row,binding result,Binder
1,binds,"GIPC3 PDZ-GH2 domains (93–297), MBP-tagged (protein) GETKEVEVTKTEDALGLTITDNGAGYAFIKRIKEGSIINRIEAVCVGDSIEAINDHSIVGCRHYEVAKMLRELPKSQPFTLRLVQPRRAFDMIGQRSRSSKCPVEAKVSSGRETLRLRSGGAATVEEAPSDVEAAAARRVDDLLESYMGIRDPELAAAVVETARSSAGAQAFARGLDAVLGEFAFPDEFVVEVWAAIGEAHDACG"
2,no binding,"GIPC3 PDZ (93–181), MBP-tagged (protein) GETKEVEVTKTEDALGLTITDNGAGYAFIKRIKEGSIINRIEAVCVGDSIEAINDHSIVGCRHYEVAKMLRELPKSQPFTLRLVQPRRA"
